We go through 3 proteins from PMC8802628, “Selective activation of PFKL suppresses the phagocytic oxidative burst” (Cell, 2021).

Numbering of substitutions follows the chain as printed. In names and notes the source's numbering stands. Several values for one entry are separate records, joined by “and”; a condition that tells them apart may be missing. Identical values can stand only once.

Series [1] concerns the molecule itself. In words: cryo-EM structure; 9 uM purified PFKL with 1 mM ATP, 2 mM F6P and 50 uM NA-11 in 20 mM HEPES pH 7.5, 1 mM DTT, 500 uM ammonium sulfate, 5% glycerol, 100 uM EDTA; refinement focused on a single, masked tetramer.
Substrate in series [2]: O=C(CO)[C@@H](O)[C@H](O)[C@H](O)COP(=O)(O)O
In words: Recombinant PFKL activity assay (relief of ATP inhibition). The series is classed as biochemical, human. The following applies: other: PFKL wild type, pH 7.5, 225 μM ATP, 25.0 °C. The text has this:
(§1) Recombinant N-terminal His-tagged human PFKL (NP_002617), PFKM (NP_000280), and PFKP (NM_002627.4) were generated as described ([Webb et al., 2015], [2017]). Point mutants of PFK1 were generated using the QuikChange Lightning kit (Aligent).
(§2) His-tagged PFK1 was expressed and purified as described with slight modifications ([Webb et al., 2015], [2017]). Briefly, baculovirus was generated using the Bac-to-Bac Expression system (Invitrogen). PFK1 was expressed in 2-5 × 10^6 sf9 cells at a multiplicity of infection of two for 48 h. […] Protein was quantified using a Bradford Protein Assay kit (ThermoFisher Scientific), and aliquotes frozen in liquid nitrogen for storage at −80°C.
(§3) PFK1 activity was determined using the rate of FBP production via an auxiliary enzyme assay adapted to a 96-well format ([Brüser et al., 2012]; [Webb et al., 2015]). […] For assays containing FBP, the rate of ADP production was determined using the auxiliary enzymes pyruvate kinase (PK) and lactate dehydrogenase (LDH) (MilliporeSigma) in a buffer containing 250 μM phosphoenolpyruvic acid, […] NADH, 50 mM HEPES pH 7.5, 100 mM KCl, 1 mM DTT, and effector concentrations as described in the text. […] Absorbance at 340 nm was measured using a Varioskan LUX Multimode microplate reader (ThermoFisher). […]

Substrate in series [3]: O=C(CO)[C@@H](O)[C@H](O)[C@H](O)COP(=O)(O)O
In words: Recombinant PFKL−hook activity assay. It is filed as biochemical, human. As to conditions: other: PFKL−hook, pH 7.5, 225 μM ATP, 25.0 °C.
Excerpt: as §1, §2, §3

Substrate in series [4]: O=C(CO)[C@@H](O)[C@H](O)[C@H](O)COP(=O)(O)O
In words: Recombinant PFKL−pocket activity assay. The following applies: other: PFKL−pocket, pH 7.5, 225 μM ATP, 25.0 °C. It is filed as biochemical, human.
Excerpt: as §1, §2, §3

B1: phosphofructokinase-1 liver type (PFKL), human, recombinant N-terminal His-tagged (enzyme)
chain: MAAVDLEKLRASGAGKAIGVLTSGGDAQGMNAAVRAVTRMGIYVGAKVFLIYEGYEGLVEGGENIKQANWLSVSNIIQLGGTIIGSARCKAFTTREGRRAAAYNLVQHGITNLCVIGGDGSLTGANIFRSEWGSLLEELVAEGKISETTARTYSHLNIAGLVGSIDNDFCGTDMTIGTDSALHRIMEVIDAITTTAQSHQRTFVLEVMGRHCGYLALVSALASGADWLFIPEAPPEDGWENFMCERLGETRSRGSRLNIIIIAEGAIDRNGKPISSSYVKDLVVQRLGFDTRVTVLGHVQRGGTPSAFDRILSSKMGMEAVMALLEATPDTPACVVTLSGNQSVRLPLMECVQMTKEVQKAMDDKRFDEATQLRGGSFENNWNIYKLLAHQKPPKEKSNFSLAILNVGAPAAGMNAAVRSAVRTGISHGHTVYVVHDGFEGLAKGQVQEVGWHDVAGWLGRGGSMLGTKRTLPKGQLESIVENIRIYGIHALLVVGGFEAYEGVLQLVEARGRYEELCIVMCVIPATISNNVPGTDFSLGSDTAVNAAMESCDRIKQSASGTKRRVFIVETMGGYCGYLATVTGIAVGADAAYVFEDPFNIHDLKVNVEHMTEKMKTDIQRGLVLRNEKCHDYYTTEFLYNLYSSEGKGVFDCRTNVLGHLQQGGAPTPFDRNYGTKLGVKAMLWLSEKLREVYRKGRVFANAPDSACVIGLKKKAVAFSPVTELKKDTDFEHRMPREQWWLSLRLMLKMLAQYRISMAAYVSGELEHVTRRTLSMDKGF
notes: human phosphofructokinase-1 liver type (PFKL), NP_002617; Homotetramer; In cryo-EM it mostly formed stacked pairs of tetramers; The sample held ATP, F6P and the small molecule NA-11; also called PFK1 liver isoform; wild-type PFKL; source: Sf9 cells (baculovirus, Bac-to-Bac), purified (HisPur cobalt resin, desalting column)
In the case of B1, in series [1], the stoichiometry N (commonly the number of molecules, sites or subunits per partner or assembly) is 4 and 8. Moreover, in series [2], the Km – broadly, the concentration of substrate that gives half-maximal velocity – turned out to be 1970 ± 240 µM.

B2: PFKL(V545L, V582M) (PFKL−hook) (Homo sapiens; V545L/V582M) (protein)
chain: B1 chain with V545L, V582M
notes: made in house; host or cells: Sf9 insect cells (baculovirus)
As for B2, the Km in series [3] is 1200 ± 90 µM.

B3: PFKL(K315R) (PFKL−pocket) (Homo sapiens; K315R) (protein)
chain: B1 chain with K315R
notes: as for B2
On to B3, for which the Michaelis constant (Km) in series [4] stood at 2060 ± 120 µM.
